Laboratory results as given in US20080075684A1.

Experiments:
keratin of human hair [1] = assay: quantitative hair binding test: human hair incubated with His-tagged comparison protein, detection with anti-polyhistidine peroxidase conjugate and TMB, absorption at 405 nm
keratin of human hair [2] = assay: quantitative hair binding test: human hair incubated with renatured His-tagged KBD-B, detection with anti-polyhistidine peroxidase conjugate and TMB, absorption at 405 nm
keratin of human hair [3] = assay: quantitative hair binding test with the denatured (not renatured) protein: human hair, detection with anti-polyhistidine peroxidase conjugate and TMB, absorption at 405 nm

YaaD from B. subtilis (comparison protein, with His tag) (from UniProt P37527)
A405 nm (keratin of human hair [1]): 0.088

B1: KBD-B (keratin-binding domain B of human desmoplakin), expressed by the vector pQE30-KBD-B in E. coli (protein)
chain: MRGSHHHHHHGSACELEPHTGLLLLSVQKRSMSFQGIRQPVTVTELVDSGILRPSTVNELESGQISYDEVGERIKDFLQGSSCIAGIYNETTKQKLGIYEAMKIGLVRPGTALELLEAQAATGFIVDPVSNLRLPVEEAYKRGLVGIEFKEKLLSAERAVTGYNDPETGNIISLFQAMNKELIEKGHGIRLLEAQIATGGIIDPKESHRLPVDIAYKRGYFNEELSEILSDPSDDTKGFFDPNTEENLTYLQLKERCIKDEETGLCLLPLKEKKKQVQTSQKNTLRKRRVVIVDPETNKEMSVQEGVDLQPSLIS
A405 nm (keratin of human hair [2]): 1.59
A405 nm (keratin of human hair [3]): 0.254
